# Test results as given in patent US6673571B2, “Polypeptides having aminopeptidase activity and nucleic acids encoding same” (Novozymes Biotech, Inc., priority 1997, dated 2004).
# B1: Sphingomonas capsulata aminopeptidase I: purified aminopeptidase of 67 kDa from Sphingomonas capsulata IFO 12533; deduced amino acid sequence SEQ ID NO:2 (protein)
# chain: MRKTPQGIGLLSALSTSTLALATLILAQPALAQVQPASNSRPMAVPIAHGVPDAQDVPYPGTIGLQIDATDLATGAFRVVETVPVAADAKELILQLPAWLPGEHGNRGPVAELAGITFEAKGQKLAWTRDPVEVNAFHIPLPAGTSEVVARFIHTSPLRDSEGRITVTREMLNVQWEKMSLYPAGHYVRQIKVRPTVSFPQGWTVFTALDGKTQSGAGNTVTWAETDYETLVDSPIFAGLYAARHDLGHNVYFDLVADKPELLAIKPENLAAYRNLADEAVGAFGARHFDHYDFLLALTDRMGSIGLEHHRSSENQQEPKSLTDWAAYDWDRNVIAHEFSHSWDGKYRRSAKLWTPDYRQPMQDNLLWVYEGQTQFWGLVLAARSGVQSKDVVLGSLANYAGTFTQTAGRDWRSVEDTTMDPIFAARKPKPYSSLTRNEDYYTEGALVWLEADQIIRDGTGGKKGLDDFAKAFFGVRDGDWGVLTYEFDDVVKTLNGVYPYDWATFLKTRLQTPGQPVPLGGIERGGYKLEFKDEPNPYDKARMADAKVLSLFNSLGVTLDKDGKVTASRWDGPAFKAGLVSGMQVMAVNGDAYDADKLKGAITNAKTGNPGAGRPIELLVKRDDRFVTLPITYADGLRWPWLVRTAPGTAPTGLDKLLAPHASKLPVGKAAK
# Assays:
# [1] = pH optimum / pH profile with Ala-pNA; assay type: biochemical; settings: room temperature
# Protocol: The pH optimum for the 67 kDa aminopeptidase I was determined using the following protocol. The buffer solutions at different pH's were prepared by adding distilled water to 4.25 g of sodium acetate and 3.78 g of Tris (free base) to a final volume of 250 ml and adjusting the pH to 8.5, 8.0, 7.5, 7.0, 6.5, 5.80, 5.5, and 5.0 with 36.5-38% HCl. Aliquots of 10 ml were removed at each pH. A 20 μl volume of a 100 mg/ml solution of Ala-pNA in DMSO was added to 980 μl of each buffer solution. The pH was then determined to be 8.5, 8.0, 7.57, 7.30, 7.09, 6.68, 6.14, and 5.25 for the buffer solutions after the addition of the substrate. Another solution of substrate at a concentration of 2 mg/ml was prepared at the various pHs. The reaction was initiated by the addition of 10 μl of enzyme solution, diluted 5-fold in 10 mM Tris-HCl pH 7.5, to 200 μl of substrate at the various pHs at room temperature and monitored at 405 nm.
# There was no detectable autohydrolysis of Ala-pNa in the pH range 5.25-8.5.
# [2] = Substrate specificity: initial rates of hydrolysis of para-nitroanilides; assay type: biochemical; settings: pH 7.5, 25° C.
# Protocol: Stock solutions of 100 mg of each para-nitroanilide per ml of dimethylsulfoxide were diluted with 50 mM sodium phosphate pH 7.5 buffer to concentrations of 2 mg per ml. Where the substrates were incompletely soluble, their suspensions were used (shown with an asterisk in Table 2 below). The reaction of the Sphingomonas capsulata aminopeptidase I with each para-nitroanilide was initiated when a 10 μl aliquot of the enzyme solution in 50 mM sodium phosphate pH 7.0 buffer was added to 190 μl of a substrate solution in a 96 well microtiter plate. Analysis of initial rates of hydrolysis of the para-nitroanilides was monitored at 405 nm and 25° C. in a THERMOmax Microplate Reader (Molecular Devices Corp., Sunnyvale, Calif., USA).
# [3] = Isoelectric point by activity staining method; assay type: physicochemical; settings: freshly prepared enzyme
# Excerpt: The isoelectric point of the aminopeptidase is variable since the isoelectric point of the freshly prepared enzyme is estimated as 8.4 using an activity staining method, however, the isoelectric point varies from 7.4 to 8.5 during the course of purification and/or storage. The uncertainty of the isoelectric point may be due to the self digestion of the aminopeptidase from its amino terminal.
# [4] = Substrate specificity: initial rates of hydrolysis of para-nitroanilides; assay type: biochemical; settings: Gly-Phe-pNA versus Ala-Ala-pNA
# [5] = pH optimum / pH profile with Ala-pNA; assay type: biochemical
# [6] = system: soy protein; experiment: Degree of hydrolysis (DH) in soy protein hydrolysis, OPA method; assay type: biochemical, soy bean; settings: for DH: 50° C., 18 hours
# Protocol: The degree of hydrolysis (DH) of the soy protein was determined as follows. The DH, defined as described in by Adler-Nissen (1986, Enzymic Hydrolysis of Food Proteins, Elsevier Applied Science Publishers), was determined by reaction of the supernatant with OPA (ortho-phthaldialdehyde, Sigma Chemical Co., St. Louis, Mo.) essentially as described by Church et al., 1983, Journal of Dairy Science 66: 1219-1227 with correction factors as determined by Adler-Nissen, 1979, Agricultural and Food Chemistry 27: 1256-1262.
# The aminopeptidase I was added in increasing dosage to either a low-background (1.5% of the substrate protein) or a high background (6% of the substrate protein) of FLAVOURZYME 1000L™ and a dosage of ALCALASE 2.4L® of 1.5% of the substrate protein. The experiments were carried out as described below:
# Hydrolysis was carried out on a 10 ml scale at 50° C. for 18 hours. The initial pH was 7 with no pH readjustment during hydrolysis. Inactivation of the enzyme was carried out at 85° C. for 3 minutes in a water bath. The substrate concentration was 2% protein from soy bean meal. The substrate was heat treated in a water bath at 85° C. for 3 minutes. The enzymes used with FLAVOURZYME 1000L™ and ALCALASE 2.4L® described above were crude Sphingomonas capsulata aminopeptidase I powder (see Example 1) and the purified Sphingomonas capsulata aminopeptidase I described in Example 4.
# [7] = Specific activity in alanyl-aminopeptidase units (AAU); assay type: biochemical; settings: Ala-pNa, pH 7.5, 22° C.
# Protocol: The aminopeptidase I dosages used were based on alanyl-aminopeptidase units (AAU) determined by the hydrolysis of Ala-pNa at pH 7.5. One AAU unit of the aminopeptidase I is defined as the quantity of an enzyme which hydrolyses 1.0 micromole of Ala-pNa per minute in a 9.1 mM solution of Ala-pNa at pH 7.5, 22° C., and ionic strength=0.05.
# The specific activity of the purified aminopeptidase I was approximately 12 AAU/mg enzyme. Therefore, a dosage of 0.24 AAU per 200 mg soy protein, for example, corresponded to 0.1 g enzyme per kg soy protein.
molecule,measurement,setting,value
B1,Relative activity (%),"[1]; pH 5.25, Ala-pNA",24.9%
same,Relative activity (%),"[1]; pH 6.14, Ala-pNA",56.4%
same,Relative activity (%),"[1]; pH 6.68, Ala-pNA",78.4%
same,Relative activity (%),"[1]; pH 7.09, Ala-pNA",99.4%
same,Relative activity (%),"[1]; pH 7.30, Ala-pNA",100%
same,Relative activity (%),"[1]; pH 7.57, Ala-pNA",92.8%
same,Relative activity (%),"[1]; pH 8.0, Ala-pNA",61%
same,Relative activity (%),"[1]; pH 8.49, Ala-pNA",24.2%
same,Relative activity (%),[2]; Ala p-nitroanilide,100%
same,Relative activity (%),[2]; Asp p-nitroanilide,4.5%
same,Relative activity (%),[2]; Glu* p-nitroanilide (suspension),6%
same,Relative activity (%),[2]; Gly* p-nitroanilide (suspension),20%
same,Relative activity (%),[2]; Ile p-nitroanilide,0.5%
same,Relative activity (%),[2]; Leu p-nitroanilide,18.5%
same,Relative activity (%),[2]; Lys p-nitroanilide,6%
same,Relative activity (%),[2]; Met p-nitroanilide,24%
same,Relative activity (%),[2]; Phe* p-nitroanilide (suspension),0%
same,Relative activity (%),[2]; Pro p-nitroanilide,0%
same,Relative activity (%),[2]; Val p-nitroanilide,0.5%
same,isoelectric point,[3],~8.4
same,hydrolysis of dipeptide substrates,[4],hydrolysed Gly-Phe-pNA more quickly than Ala-Ala-pNA
same,Km,"[5]; Ala-pNA, pH 7.5",2500 µM
same,kinetics of hydrolysis of Ala-pNA,"[5]; pH 5.5, apparent Km and Vmax negative due to activation by substrate",did not follow Michaelis-Menten kinetics
same,% Relative increase in DH,[6]; 1.5% FLAVOURZYME +67 kDa AP,34.8%
same,% Relative increase in DH,[6]; 1.5% FLAVOURZYME +67 kDa AP versus 6.0% FLAVOURZYME,−2.2%
same,% Relative increase in DH,[6]; 6.0% FLAVOURZYME +67 kDa AP,14.2%
same,DH,"[6]; added to high dosage (6%) FLAVOURZYME + 1.5% ALCALASE, from DH 61%",71%
same,DH,"[6]; added to low dosage (1.5%) FLAVOURZYME + 1.5% ALCALASE, from DH 44%",61-62%
same,share of the DH increasing effect of the crude enzyme,"[6]; high dosage of FLAVOURZYME, (71−61)/(77−61)×100%",63%
same,share of the DH increasing effect of the crude enzyme,"[6]; low dosage of FLAVOURZYME, (62−44)/(72−44)×100%",64%
same,effect of adding aminopeptidase I as % of the effect of the crude enzyme,"[6]; relative to 1.5% + 0.5% extra FLAVOURZYME, (62−48)/(72−48)×100%",58%
same,effect of aminopeptidase I as % of the effect of the crude enzyme,"[6]; relative to 6% + 1% extra FLAVOURZYME, (71−63)/(77−63)×100%",57%
same,specific activity,[7],approximately 12 AAU/mg enzyme
